Residue numbers refer to the chain shown, from its start.
B1: anti-PCSK9 antibody 508.20.84 (antibody, V domains shown)
VH: EVQLVESGGGLVQPGGSLRLSCAASGFTFTGYAIHWVRQAPGKGLEWVARISPANGNTNYADSVKGRFTISADTSKNTAYLQMNSLRAEDTAVYYCARWIGSRELYIMDYWGQGTLVTVSS
VL: DIQMTQSPSSLSASVGDRVTITCRASQDVSTAVAWYQQKPGKAPKLLIYSASFLYSGVPSRFSGSGSGTDFTLTISSLQPEDFATYYCQQSYPAPSTFGQGTKVEIK
B2: anti-PCSK9 antibody 508.20.28b (antibody, V domains shown)
VH: B1 VH with G31R, Y32H, A33T, H35N
VL: B1 VL with P93R, A94I, P95Q, S96P
B3: YW508.20.33b reformatted into human IgG1 having a heavy chain with SEQ ID NO: 35 and a light chain with SEQ ID NO: 36 (antibody, V domains shown)
VH: B1 VH with T30S, G31S, Y32T
VL: DIQMTQSPSSLSASVGDRVTITCRASQDVSTAVAWYQQKPGKAPKLLIYSASFLYSGVPSRFSGSGSGTDFTLTISSLQPEDFATYYCQQAYPALHTFGQGTKVEIKR
B4: anti-PCSK9 antibody 508.20.04b (antibody, V domains shown)
VH: B1 VH
VL: B1 VL with S96A
B5: anti-PCSK9 antibody 508.20.06 (antibody, V domains shown)
VH: B1 VH
VL: B1 VL with A94S, S96A
B6: YW508.20.33b (antibody, V domains shown)
VH: B1 VH with T30S, G31S, Y32T
VL: B3 VL
B7: YW508.20.28b (antibody, V domains shown)
VH: B1 VH with G31R, Y32H, A33T, H35N
VL: B1 VL with P93R, A94I, P95Q, S96P
B8: YW508.20.04b (antibody, V domains shown)
VH: B1 VH
VL: B1 VL with S96A
B9: YW508.20.06 (antibody, V domains shown)
VH: B1 VH
VL: B1 VL with A94S, S96A
B10: YW508.20.84 (antibody, V domains shown)
VH: B1 VH
VL: B1 VL
B11: YW508.20b (antibody, V domains shown)
VH: B1 VH
VL: B1 VL with P93T, A94T, S96P

target: Human PCSK9 (Genbank EF692496) containing a histidine (His)8 C-terminal tag (UniProt Q8NBP7 31-692); test: BIAcore SPR

| Binder | Kd |
| --- | --- |
| B1 | 0.481 nM |
| B2 | 0.349 nM |
| B3 | 0.408 nM |
| B4 | 0.757 nM |
| B5 | 0.628 nM |

target: murine PCSK9; test: BIAcore SPR

| Binder | Kd |
| --- | --- |
| B6 | 0.0123 nM |
| B7 | 0.323 nM |
| B8 | 0.117 nM |
| B9 | 0.201 nM |
| B10 | 0.135 nM |

target: Cyno PCSK9; test: BIAcore SPR

| Binder | Kd |
| --- | --- |
| B6 | 0.0624 nM |

target: Rat PCSK9; test: BIAcore SPR

| Binder | Kd |
| --- | --- |
| B6 | 0.0182 nM |

target: rhesus PCSK9; test: BIAcore SPR

| Binder | Kd |
| --- | --- |
| B6 | 4.09 nM |

target: biotinylated human PCSK9 (UniProt Q8NBP7 31-692, biotinylated (sites not given)); test: competition binding ELISA (PCSK9-LDLR)

| Binder | IC50 |
| --- | --- |
| B1 | 1.39 nM |
| B2 | 1.05 nM |
| B11 | 15.2 nM |
| B3 | 1.31 nM |
| B4 | 0.92 nM |
| B5 | 1 nM |

— patent US20130344085A1 (published 2013)
